Consider one substance from patent US20090298167A1.

This experiment addresses human IL-21 (human) (UniProt Q9HBE4). Briefly: cell-based or functional assay.

Sequence of human IL-21 (human) (Q9HBE4 25-162 limits assumed): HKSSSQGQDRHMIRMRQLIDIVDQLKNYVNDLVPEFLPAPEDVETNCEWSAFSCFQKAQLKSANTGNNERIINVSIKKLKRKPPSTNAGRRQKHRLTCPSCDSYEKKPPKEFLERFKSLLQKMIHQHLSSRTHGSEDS

As to “human IL-21R-Fc (from UniProt Q9HBE5 20-232) (Fc fusion)”, the Human IL-21R-BaF3 Neutralization IC50 came to 200 pM.
